The text below walks through data of article PMC4242836 (The Journal of Cell Biology, 2014).

In this assay the target is T1, Snu13p (S. cerevisiae, UniProt P39990 1-126).
T1 sequence: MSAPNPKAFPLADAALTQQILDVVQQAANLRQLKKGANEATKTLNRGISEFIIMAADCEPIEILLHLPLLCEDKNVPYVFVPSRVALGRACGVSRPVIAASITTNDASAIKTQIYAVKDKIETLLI
The experiment in a line: crystal structure.

B1: Rsa1_(238–290) (domain or fragment)
chain: TDEDVKKWREERKKMWLLKISNNKQKHMQEMGIKEDELKSQPSIFKESRKEKQ
For B1, the binding result is reported as “binds”.
